Test results taken from paper PMC9482650, “Quantitative fragmentomics allow affinity mapping of interactomes” (Nature Communications, 2022).

T1: GRIP1_7, Q9Y3R0
T1 sequence (Q9Y3R0 999-1096, limits assumed, looked up): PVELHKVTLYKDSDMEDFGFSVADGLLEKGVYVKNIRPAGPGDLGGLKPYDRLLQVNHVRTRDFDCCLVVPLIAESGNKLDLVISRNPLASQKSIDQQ

T2: SNTG2, Q9NY99
T2 sequence (Q9NY99 68-166, limits assumed, looked up): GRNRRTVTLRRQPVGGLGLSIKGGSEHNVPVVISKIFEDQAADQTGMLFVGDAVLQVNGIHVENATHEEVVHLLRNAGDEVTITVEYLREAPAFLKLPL

T3: GRIP1_4, Q9Y3R0
T3 sequence (Q9Y3R0 467-571, limits assumed, looked up): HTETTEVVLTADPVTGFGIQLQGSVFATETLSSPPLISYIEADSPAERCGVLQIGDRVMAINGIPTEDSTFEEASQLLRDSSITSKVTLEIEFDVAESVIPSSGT

T4: RADIL, Q96JH8
T4 sequence (Q96JH8 971-1071, limits assumed, looked up): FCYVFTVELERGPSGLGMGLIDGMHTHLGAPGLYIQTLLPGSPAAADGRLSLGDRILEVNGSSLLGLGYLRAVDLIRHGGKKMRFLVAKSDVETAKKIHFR

T5: MPP7, Q5T2T1
T5 sequence (Q5T2T1 134-230, limits assumed, looked up): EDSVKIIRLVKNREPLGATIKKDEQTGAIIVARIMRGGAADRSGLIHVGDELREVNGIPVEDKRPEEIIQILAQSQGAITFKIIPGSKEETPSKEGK

T6: PDZD2_2, O15018
T6 sequence (O15018 329-429, limits assumed, looked up): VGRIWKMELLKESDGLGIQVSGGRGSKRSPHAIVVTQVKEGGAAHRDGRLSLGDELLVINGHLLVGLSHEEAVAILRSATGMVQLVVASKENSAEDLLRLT

T7: APBA1_2, Q02410
T7 sequence (Q02410 742-832, limits assumed, looked up): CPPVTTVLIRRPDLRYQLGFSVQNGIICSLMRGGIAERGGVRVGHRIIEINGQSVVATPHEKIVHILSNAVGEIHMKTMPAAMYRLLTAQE

T8: DFNB31_2, Q9P202
T8 sequence (Q9P202 274-371, limits assumed, looked up): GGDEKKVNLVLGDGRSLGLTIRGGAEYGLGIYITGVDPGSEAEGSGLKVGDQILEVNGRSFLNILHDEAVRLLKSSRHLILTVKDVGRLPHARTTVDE

T9: DLG3_3, Q92796
T9 sequence (Q92796 374-475, limits assumed, looked up): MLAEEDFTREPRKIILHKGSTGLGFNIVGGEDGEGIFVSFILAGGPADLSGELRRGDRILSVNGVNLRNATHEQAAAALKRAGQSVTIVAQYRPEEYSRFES

T10: NHERF3_4, Q5T2W1
T10 sequence (Q5T2W1 373-468, limits assumed, looked up): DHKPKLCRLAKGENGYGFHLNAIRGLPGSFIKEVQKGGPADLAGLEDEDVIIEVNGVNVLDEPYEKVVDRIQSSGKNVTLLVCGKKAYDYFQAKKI

T11: APBA1_1, Q02410
T11 sequence (Q02410 651-752, limits assumed, looked up): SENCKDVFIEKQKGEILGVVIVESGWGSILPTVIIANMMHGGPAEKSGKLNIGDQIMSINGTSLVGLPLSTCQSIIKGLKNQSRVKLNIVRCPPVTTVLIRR


Tests used:
Assay in all cases: holdup assay
Set-up in all cases: key: below the threshold = too weak to quantify, mostly under pKd 3.1 to 4
Conditions in all cases: plain residues with an end cap or a label only (N-terminal biotin on a linker: ado-ado)
LNX1_3, Q8TBB1 = molecular target: LNX1_3, Q8TBB1
Chain of LNX1_3, Q8TBB1 (Q8TBB1 500-596): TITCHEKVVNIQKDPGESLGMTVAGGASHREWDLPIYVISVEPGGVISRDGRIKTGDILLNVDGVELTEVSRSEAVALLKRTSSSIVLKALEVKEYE

GRIP1_7, Q9Y3R0 = molecular target: T1, GRIP1_7, Q9Y3R0
LNX1_2, Q8TBB1 = molecular target: LNX1_2, Q8TBB1
Chain of LNX1_2, Q8TBB1 (Q8TBB1 371-470): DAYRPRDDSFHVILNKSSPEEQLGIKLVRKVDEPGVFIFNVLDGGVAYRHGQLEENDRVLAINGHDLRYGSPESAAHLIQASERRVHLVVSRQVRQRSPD

SNTG2, Q9NY99 = molecular target: T2, SNTG2, Q9NY99
GRIP1_4, Q9Y3R0 = molecular target: T3, GRIP1_4, Q9Y3R0
RADIL, Q96JH8 = molecular target: T4, RADIL, Q96JH8
HTRA2, O43464 = molecular target: HTRA2, O43464
Chain of HTRA2, O43464 (O43464 355-458): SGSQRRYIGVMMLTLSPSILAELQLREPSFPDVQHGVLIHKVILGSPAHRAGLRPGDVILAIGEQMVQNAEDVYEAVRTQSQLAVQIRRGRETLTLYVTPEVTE

DLG1_3, Q12959 = molecular target: DLG1_3, Q12959
Chain of DLG1_3, Q12959 (Q12959 457-571): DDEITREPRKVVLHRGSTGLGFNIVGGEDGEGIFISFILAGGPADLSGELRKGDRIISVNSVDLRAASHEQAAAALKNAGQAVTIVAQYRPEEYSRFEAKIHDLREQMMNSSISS

SCRIB_2, Q14160 = molecular target: SCRIB_2, Q14160
Chain of SCRIB_2, Q14160 (Q14160 857-960): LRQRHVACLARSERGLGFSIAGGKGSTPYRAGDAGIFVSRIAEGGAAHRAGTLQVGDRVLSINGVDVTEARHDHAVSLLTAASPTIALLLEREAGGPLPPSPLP

AHNAK1, Q09666 = molecular target: AHNAK1, Q09666
Chain of AHNAK1, Q09666 (Q09666 4-100): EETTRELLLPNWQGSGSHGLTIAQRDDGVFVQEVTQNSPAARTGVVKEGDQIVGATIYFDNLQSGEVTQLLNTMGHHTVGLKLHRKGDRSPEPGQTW

Inadl_5, Q8NI35 = molecular target: Inadl_5, Q8NI35
Chain of Inadl_5, Q8NI35 (Q8NI35 673-780): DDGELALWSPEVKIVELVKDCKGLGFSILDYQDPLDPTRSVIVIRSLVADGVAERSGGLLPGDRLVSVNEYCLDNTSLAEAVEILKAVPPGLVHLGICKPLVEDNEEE

Inadl_6, Q8NI35 = molecular target: Inadl_6, Q8NI35
Chain of Inadl_6, Q8NI35 (Q8NI35 1058-1167): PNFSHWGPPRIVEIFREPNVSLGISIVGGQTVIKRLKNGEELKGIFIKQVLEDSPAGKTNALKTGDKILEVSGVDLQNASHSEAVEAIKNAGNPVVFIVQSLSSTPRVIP

MAGI3_2, Q5TCQ9 = molecular target: MAGI3_2, Q5TCQ9
Chain of MAGI3_2, Q5TCQ9 (Q5TCQ9 398-503): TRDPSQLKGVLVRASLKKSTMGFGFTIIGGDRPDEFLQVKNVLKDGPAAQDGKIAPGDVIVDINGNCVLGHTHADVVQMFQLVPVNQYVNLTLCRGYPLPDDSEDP

TJP1_2, Q07157 = molecular target: TJP1_2, Q07157
Chain of TJP1_2, Q07157 (Q07157 181-274): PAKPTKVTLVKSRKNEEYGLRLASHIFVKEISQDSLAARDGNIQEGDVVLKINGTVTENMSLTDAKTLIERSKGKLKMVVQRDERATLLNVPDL

MPP7, Q5T2T1 = molecular target: T5, MPP7, Q5T2T1
PDZD2_2, O15018 = molecular target: T6, PDZD2_2, O15018
APBA1_2, Q02410 = molecular target: T7, APBA1_2, Q02410
TJP1_3, Q07157 = molecular target: TJP1_3, Q07157
Chain of TJP1_3, Q07157 (Q07157 416-512): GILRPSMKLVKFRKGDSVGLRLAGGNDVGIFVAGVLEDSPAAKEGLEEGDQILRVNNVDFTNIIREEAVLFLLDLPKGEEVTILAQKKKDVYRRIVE

DFNB31_2, Q9P202 = molecular target: T8, DFNB31_2, Q9P202
DLG3_3, Q92796 = molecular target: T9, DLG3_3, Q92796
SNX27, Q96L92 = molecular target: SNX27, Q96L92
FRMPD2_3, Q68DX3 = molecular target: FRMPD2_3, Q68DX3
Chain of FRMPD2_3, Q68DX3 (Q68DX3 1073-1166): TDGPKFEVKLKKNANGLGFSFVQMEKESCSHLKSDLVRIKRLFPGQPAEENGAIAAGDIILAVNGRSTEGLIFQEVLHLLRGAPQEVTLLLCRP

NHERF3_4, Q5T2W1 = molecular target: T10, NHERF3_4, Q5T2W1
Inadl_2, Q8NI35 = molecular target: Inadl_2, Q8NI35
Chain of Inadl_2, Q8NI35 (Q8NI35 238-335): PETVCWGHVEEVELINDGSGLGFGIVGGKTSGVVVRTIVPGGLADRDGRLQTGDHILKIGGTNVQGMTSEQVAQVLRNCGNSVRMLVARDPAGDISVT

APBA1_1, Q02410 = molecular target: T11, APBA1_1, Q02410
Inadl_3, Q8NI35 = molecular target: Inadl_3, Q8NI35
Chain of Inadl_3, Q8NI35 (Q8NI35 359-469): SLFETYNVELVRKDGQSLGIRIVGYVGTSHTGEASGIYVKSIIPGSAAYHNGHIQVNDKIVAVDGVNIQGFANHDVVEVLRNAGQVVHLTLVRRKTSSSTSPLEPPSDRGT

DLG1_2, Q12959 = molecular target: DLG1_2, Q12959
Chain of DLG1_2, Q12959 (Q12959 314-412): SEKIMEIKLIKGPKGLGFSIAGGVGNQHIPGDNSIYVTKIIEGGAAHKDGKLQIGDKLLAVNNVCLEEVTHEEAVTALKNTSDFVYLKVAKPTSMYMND

Row | Binder | pKd (LNX1_3, Q8TBB1) | pKd (GRIP1_7, Q9Y3R0) | pKd (LNX1_2, Q8TBB1) | pKd (SNTG2, Q9NY99) | pKd (GRIP1_4, Q9Y3R0) | pKd (RADIL, Q96JH8) | pKd (HTRA2, O43464) | pKd (DLG1_3, Q12959) | pKd (SCRIB_2, Q14160) | pKd (AHNAK1, Q09666) | pKd (Inadl_5, Q8NI35) | pKd (Inadl_6, Q8NI35) | pKd (MAGI3_2, Q5TCQ9) | pKd (TJP1_2, Q07157) | pKd (MPP7, Q5T2T1) | pKd (PDZD2_2, O15018) | pKd (APBA1_2, Q02410) | pKd (TJP1_3, Q07157) | pKd (DFNB31_2, Q9P202) | pKd (DLG3_3, Q92796) | also measured
1 | NASRTRITFV [MCM7, P33993] | below the threshold | below the threshold | 4.06 | 3.84 | below the threshold | 5.81 | 4.52 | 4.12 | below the threshold | below the threshold | 4.34 | 4.46 | 5.49 | 3.62 | below the threshold | 4.7 | 4.71 | below the threshold | below the threshold | 4.47 | pKd (SNX27, Q96L92): 4.85; pKd (FRMPD2_3, Q68DX3): below the threshold; pKd (NHERF3_4, Q5T2W1): 3.53; pKd (Inadl_2, Q8NI35): 4.61; pKd (APBA1_1, Q02410): below the threshold; pKd (Inadl_3, Q8NI35): below the threshold; pKd (DLG1_2, Q12959): 5.28
2 | ANGLMQTSKL [SSTR5, P35346] | below the threshold | below the threshold | below the threshold | 3.62 | below the threshold | below the threshold | below the threshold | below the threshold | below the threshold | below the threshold | below the threshold | below the threshold | below the threshold | below the threshold | below the threshold | below the threshold | below the threshold | below the threshold | below the threshold | below the threshold | pKd (SNX27, Q96L92): 5.52; pKd (FRMPD2_3, Q68DX3): below the threshold; pKd (NHERF3_4, Q5T2W1): 4.76; pKd (Inadl_2, Q8NI35): below the threshold; pKd (APBA1_1, Q02410): below the threshold; pKd (Inadl_3, Q8NI35): below the threshold; pKd (DLG1_2, Q12959): below the threshold
3 | NVYGTESVKI [GRIA3, P42263] | below the threshold | below the threshold | below the threshold | below the threshold | below the threshold | below the threshold | below the threshold | below the threshold | below the threshold | below the threshold | below the threshold | below the threshold | below the threshold | 3.59 | below the threshold | below the threshold | below the threshold | below the threshold | below the threshold | below the threshold | pKd (SNX27, Q96L92): below the threshold; pKd (FRMPD2_3, Q68DX3): below the threshold; pKd (NHERF3_4, Q5T2W1): below the threshold; pKd (Inadl_2, Q8NI35): below the threshold; pKd (APBA1_1, Q02410): below the threshold; pKd (Inadl_3, Q8NI35): below the threshold; pKd (DLG1_2, Q12959): below the threshold
4 | ETSLVKGIDI [DENND5A, Q6IQ26] | below the threshold | below the threshold | below the threshold | below the threshold | below the threshold | below the threshold | below the threshold | 3.76 | below the threshold | below the threshold | below the threshold | below the threshold | 4.39 | 4.03 | 4.47 | 4 | 3.47 | below the threshold | below the threshold | below the threshold | pKd (SNX27, Q96L92): below the threshold; pKd (FRMPD2_3, Q68DX3): 3.57; pKd (NHERF3_4, Q5T2W1): below the threshold; pKd (Inadl_2, Q8NI35): below the threshold; pKd (APBA1_1, Q02410): below the threshold; pKd (Inadl_3, Q8NI35): 3.53; pKd (DLG1_2, Q12959): below the threshold
5 | QSPPNIYYKV [EFNB3, Q15768] | 4.47 | 3.67 | 3.74 | 3.7 | below the threshold | 4.29 | 4.3 | 3.72 | below the threshold | below the threshold | below the threshold | below the threshold | below the threshold | below the threshold | 3.66 | 3.67 | 3.47 | below the threshold | below the threshold | 3.56 | pKd (SNX27, Q96L92): 3.89; pKd (FRMPD2_3, Q68DX3): below the threshold; pKd (NHERF3_4, Q5T2W1): 3.54; pKd (Inadl_2, Q8NI35): below the threshold; pKd (APBA1_1, Q02410): below the threshold; pKd (Inadl_3, Q8NI35): 3.5; pKd (DLG1_2, Q12959): below the threshold
